Residue numbers refer to the chain shown, from its start. In names and notes the source's numbering stands.
B1: pneumolysin point mutant D205R (natural protein, Streptococcus pneumoniae, UniProt Q04IN8 1-471, looked up)
chain: MANKAVNDFILAMNYDKKKLLTHQGESIENRFIKEGNQLPDEFVVIERKKRSLSTNTSDISVTATNDSRLYPGALLVVDETLLENNPTLLAVDRAPMTYSIDLPGLASSDSFLQVEDPSNSSVRGAVNDLLAKWHQDYGQVNNVPARMQYEKITAHSMEQLKVKFGSDFEKTGNSLDIDFNSVHSGEKQIQIVNFKQIYYTVSVRAVKNPGDVFQDTVTVEDLKQRGISAERPLVYISSVAYGRQVYLKLETTSKSDEVEAAFEALIKGVKVAPQTEWKQILDNTEVKAVILGGDPSSGARVVTGKVDMVEDLIQEGSRFTADHPGLPISYTTSFLRDNVVATFQNSTDYVETKVTAYRNGDLLLDHSGAYVAQYYITWDELSYDHQGKEVLTPKAWDRNGQDLTAHFTTSIPLKGNVRNLSVKIRECTGLAWEWWRTVYEKTDLPLVRKRTISIWGTTLYPQVEDKVEND
notes: pneumolysin (PLY), Streptococcus pneumoniae, with D205R in domain 1; also called PLY D205R; source: purified
B2: pneumolysin point mutant T304R (natural protein, Streptococcus pneumoniae, UniProt Q04IN8 1-471, looked up)
chain: B1 chain with R205D, T304R
notes: pneumolysin (PLY), Streptococcus pneumoniae, with T304R in domain 3; also called PLY T304R; source: purified

Target: the molecule itself
Experiment: negative-stain transmission electron microscopy; protein incubated with unilamellar liposomes (1:1 POPC/chol), stained with 1% w/v uranyl acetate on a copper grid; membrane-bound oligomeric structures visualised

Protein | binding result
B1 | binds
B2 | binds

Reference: PMC7067851, “Formation of pre-pore complexes of pneumolysin is accompanied by a decrease in short-range order of lipid molecules throughout vesicle bilayers” (Scientific Reports, 2020)
